Assay results taken from article PMC10514136, “Peptide-conjugated antimiRs improve myotonic dystrophy type 1 phenotypes by promoting endogenous MBNL1 expression” (Molecular Therapy. Nucleic Acids, 2023).
“And” between values parts separate entries of the source, which are not always exact repeats. Equal entries are not always repeated.

What was measured:
[1] = tested on: Mbnl1 protein; experiment: Western blot of Mbnl1 in mouse muscle; type: in vivo; design: scale not given here; settings: HSALR mice, quadriceps, western blot; same value given for every mouse of a treatment group
Method: (§1) A 96-well plate QDB assay was used[87] to determine MBNL1 protein levels in all replicates and concentrations of each ON tested. This technique allows for high-throughput screening of low protein concentration samples over conventional western blot (WB) (Figure S9).[88] Cell samples (1 μg/well) and mice samples (2 μg/well) were prepared with 4× loading buffer, denatured (100°C for 5 min) and loaded in QDB plates (Quanticision Diagnostics, Research Triangle Park, NC). For the quantification of in vitro samples, the QDB was performed exactly as described in Moreno et al.[87] Each cell sample was loaded in quadruplicate in two different plates; one was used to detect MBNL1 (it was incubated overnight with primary mouse anti-MBNL1 [1:1,000, Abcam, ab77017]) and the other for GAPDH (it was incubated overnight with primary mouse anti-GAPDH [1:500, Santa Cruz, clone G-9]), which was used here as an endogenous control. For Mbnl1 quantification in mouse muscle tissues, we implemented the following modifications: each sample was loaded in quadruplicate on three different plates. One was used to detect Mbnl1 with a mouse MB1a(4A8) antibody (DSHB, Iowa City, IA) using a 1:200 dilution. A second plate was used to quantify tubulin (endogenous normalization control) with a mouse 12G10 antibody (DSHB) using a 1:1,000 dilution. A third plate was used to quantify IgG signal (negative control to subtract background) using an anti-mouse-IgG secondary antibody (Sigma-Aldrich) at 1:3,500 dilution. This subtraction was necessary due to an unspecific IgG signal could be observed in mouse samples (Figures S10A–S10D). All primary antibodies were detected using horseradish peroxidase-conjugated anti-mouse-IgG secondary antibody (1:5,000 for the anti-mouse plate, 1:2,000 for cell plates, and 1:3,500 for mouse plates [Sigma-Aldrich, MO]). Immunoreactive bands were detected using Pierce ECL Western reagent (Thermo Scientific), and luminescence levels were determined using an Infinite M200 PRO plate reader (Tecan). The validity of this correction for QDB quantification of mouse samples was confirmed by performing a series of experiments determining both the window of linearity of the assay (2–5 μg protein, Figures S10A–S10B) and the comparison with data obtained by WB in a subset of samples (Figures S10E–S10H), obtaining a correlation of 0.9927 for MBNL1 and 0.8678 for tubulin (in the case of quadriceps), and 0.9821 for MBNL1 and 0.9699 for tubulin (in gastrocnemius). For WB assay in quadriceps (Figure S10I), samples were loaded in pools of each treatment to have a representative WB of all the treatments tested. WB assay was performed as described previously.[20]

[2] = ELISA determination of antimiR conjugate concentrations in tissues; type: in vivo, mouse; settings: HSALR mice, 9.2 mg/kg (mean) i.v. x3, day 45, 9.2 mg/kg; for CPP-PMO levels in tissues, in words: ELISA in kidney, liver, heart, quadriceps, gastrocnemius, brain
Method: Custom ELISA-based measurements of antimiR conjugate concentrations in brain, kidney, liver, heart, gastrocnemius, and quadriceps from treated HSA^LR mice were performed as described in Burki et al.,[89] using the following phosphorothioate probes: for miR-218 (5′ → 3′) [DIG] T∗T∗G∗T∗G∗C∗T∗TGATCTA∗A∗C∗C∗A∗T∗G∗T [BIO]; for miR-23b (5′ → 3′) [BIO] A∗T∗C∗A∗C∗A∗T∗TGCCAGG∗G∗A∗T∗T∗A∗C∗C [DiG] double-labeled with digoxigenin (DIG) and biotin (BIO). In all cases, a control sample was used to subtract the background (HSA^LR treated with PBS for 9b2 and 9b2-KC ONs; HSA^LR treated with Scramble for 6aKC ONs).
Mouse handling and experimental procedures followed the European law regarding laboratory animal care and experimentation (2003/65/C.E.) and were approved by Conselleria de Agricultura, Generalitat Valenciana (reference no. A1539961490857). We used homozygous transgenic HSA^LR (line 20 b) mice,[90] which were kindly provided by Dr Thornton (Rochester, NY) and were housed and bred in our animal facility. Experimental groups were FVB as healthy control and HSA^LR treated with a scrambled ON (SC) and PBS as negative controls, and HSA^LR mice treated with all six experimental CPP-PMOs. The mice were randomly allocated to the different treatments as follows: in each cage, each mouse was ear-marked as it was taken out, and each mouse was then assigned to a different treatment. Animals were injected biweekly intravenously with 150 μL of 1× PBS vehicle (controls; HSA^LR n = 7 and FVB n = 6) or 150 μL of a solution 1.875 mg/mL of the test CPP-PMOs corresponding to an average dose of 9.2 mg/kg (HSA^LR mice: SC n = 5, 9b2-218 n = 5, 9b2-23b n = 5, […] n = 5, […] n = 5, 6aKC-218 n = 5, and 6aKC-23b n = 5; see Table S6 for precise dosing). Mice were sacrificed 45 days after the first injection and the tissues of interest were frozen in liquid nitrogen for the molecular and histological assays. All the mice used in this study ranged from 5 to 5.5 months of age and all were males.

[3] = tested on: IL-1β, IL-6, MCP-1, IL-12β, TNF-α, IL-15, Mstn-1; experiment: Proinflammatory cytokines and Mstn-1 in quadriceps by qRT-PCR; type: in vivo, mouse; settings: HSALR mice, 9.2 mg/kg (mean) i.v. x3, day 45; qRT-PCR
[4] = tested on: MBNL1 protein levels in DM1 cells; experiment: MBNL1 protein levels by QDB in DM1 cells after gymnotic delivery; type: cell-based, human; settings: each compound at its EC50 concentration
Method: Immortalized MyoD-inducible (doxycycline) DM1 and control fibroblasts were kindly provided by Dr Furling (Institute of Myology, Paris, France).[38] For the activity assay, cells were seeded in 6-well plates at a density of 8 × 10^4 cells/well and grown in DMEM with 4.5 g/L glucose, 1% P/S, and 10% FBS (Sigma, St. Louis, MO). To transdifferentiate fibroblasts into myoblasts by inducing MyoD expression, the cells were plated in muscle differentiation medium containing DMEM with 4.5 g L^−1 glucose, 1% P/S, 2% horse serum, 1% apo-transferrin (10 mg mL^−1), 0.1% insulin (10 mg mL^−1), and 0.02% doxycycline (10 mg mL^−1). In all cases, the cells were grown at 37°C in a humidified atmosphere containing 5% CO2. Transdifferentiation was induced at day 0, and transfection was performed by lipofection with X-tremeGENE HP (Roche, Basel, Switzerland) 24 h later, with antimiRs and test compounds in the cell medium at different concentrations (from 0.4 nM to 5 μM). The medium was replaced with fresh differentiation medium 4 h afterward. In the gymnosis assay, test compounds were added to the culture medium only at the corresponding EC50 concentration. Cells were collected on day 4 of differentiation and were processed for protein extraction.
as §1

[5] = hybridization ELISA, background subtracted, individual mice

9b2KC-23b (antisense GGUAAUCCCUGGCAAUGUGAU; all phosphorodiamidate morpholino (PMO), T or U not given here; Pip9b2KC peptide conjugated)
Mbnl1 Quads, WB assay [1]: 1.36 | CPP-PMO levels in tissues, in words [2]: lower muscle levels | CPP-PMO levels in tissues, in words ([2]; listed as 9bKC-23b): accumulation in liver was higher compared with our target tissues | CPP-PMO concentration (pM), Brain [2, 5]: 17.78 pM and 0.01 pM and 0.87 pM | CPP-PMO concentration (pM), Gastrocnemius [2, 5]: 3.32 pM and 2.34 pM and 0.01 pM | CPP-PMO concentration (pM), Heart [2, 5]: 256.63 pM and 2.97 pM and 105.40 pM | CPP-PMO concentration (pM), Kidney [2, 5]: 404860.30 pM and 2213436.59 pM and 1672927.68 pM | CPP-PMO concentration (pM), Liver [2, 5]: 113314.70 pM and 27707.42 pM and 93287.30 pM | CPP-PMO concentration (pM), Quadriceps [2, 5]: 127.62 pM and 457.08 pM and 0.82 pM | Mstn-1 expression in quadriceps [3]: downregulation of Mstn-1 | MBNL1 levels, gymnosis compared with transfection [4]: identical MBNL1 modulation results by transfection and gymnosis
